# Measurements taken from patent US20230050038A1 (WASHINGTON UNIVERSITY, published 2023).
# Changes are numbered by the printed parent chain.
# B1: Clone-01, PDGF-B variant displayed on the yeast surface (ligand)
# chain: SLGSLTIAEPAMIAECKTRTELFRISRNLIDRTNANFLVWPPCVEVQRCSGCCNNRYVQCRPTQVQLRPVQVRKIEFVRKKPIFKKATVTLEDHLACRCETVAA
# notes: not shown: Aga2p fusion partner, glycine-rich linkers and c-myc tag
# B2: Clone-02, PDGF-B variant displayed on the yeast surface (ligand)
# chain: B1 chain with K17N, L22V, Y57N, T101K
# notes: as for B1
# B3: Clone-07, PDGF-B variant displayed on the yeast surface (ligand)
# chain: B1 chain with L22V, R24E, Y57N, R98K
# notes: as for B1
# B4: Clone-03, PDGF-B variant displayed on the yeast surface (ligand)
# chain: B1 chain with R98K, T101K
# notes: as for B1
# B5: PDGF-B-cons (consensus sequence), displayed on the yeast surface (ligand)
# chain: B1 chain with L22V
# notes: Consensus of the isolated clones, tested on the yeast surface; also called PDGF-BB-cons; not shown: Aga2p fusion partner, glycine-rich linkers and c-myc tag
# B6: Clone-08, PDGF-B variant displayed on the yeast surface (ligand)
# chain: B1 chain with F77I
# notes: as for B1
# Columns and labels:
# [1] = molecular target: T1, PDGFRβ soluble extracellular domain (UniProt P09619 33-532, limits assumed, fluorescently labeled); assay: combinatorial yeast display library enriched by FACS for high binding signal to PDGFRβ ectodomain
# T1 construct: extracellular domain; also called PDGFRβ ectodomain; soluble PDGFRβ
# T1 sequence (P09619 33-532 limits assumed): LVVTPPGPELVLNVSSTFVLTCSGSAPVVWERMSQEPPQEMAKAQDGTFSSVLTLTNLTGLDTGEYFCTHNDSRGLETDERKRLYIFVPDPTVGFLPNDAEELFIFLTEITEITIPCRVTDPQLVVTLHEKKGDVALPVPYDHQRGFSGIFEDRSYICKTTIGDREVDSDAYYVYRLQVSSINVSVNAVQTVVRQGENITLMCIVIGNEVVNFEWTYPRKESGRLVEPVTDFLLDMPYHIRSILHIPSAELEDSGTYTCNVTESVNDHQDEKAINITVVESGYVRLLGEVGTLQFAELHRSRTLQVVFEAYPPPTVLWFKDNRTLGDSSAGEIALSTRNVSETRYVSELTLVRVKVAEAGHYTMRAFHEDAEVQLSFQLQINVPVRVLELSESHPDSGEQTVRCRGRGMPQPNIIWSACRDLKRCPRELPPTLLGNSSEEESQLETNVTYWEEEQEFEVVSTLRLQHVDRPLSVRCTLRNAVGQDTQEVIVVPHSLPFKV
# [2] = molecular target: T1, PDGFRβ soluble extracellular domain; assay: yeast surface display, flow cytometry with soluble PDGFRβ
binder,measurement,setting,value
B1,binding result,[1],binds
B2,binding result,[1],binds
B3,binding result,[1],binds
B4,binding result,[1],binds
B5,binding result,[2],binds
B6,binding result,[1],binds
